To fix the notation:
B1: Aβ6-15 or APP 770 (H677-Q686) (peptide)
peptide: HDSGYEVHHQ
B2: Aβ10-19 or APP 770 (Y681-F690) (peptide)
peptide: YEVHHQKLVF
B3: Aβ7-16 or APP 770 (D678-K687) (peptide)
peptide: DSGYEVHHQK
B4: Aβ11-20 or APP 770 (E682-F691) (peptide)
peptide: EVHHQKLVFF

One test addresses Serum samples collected at week 16 from patients immunized with UBI AD vaccine (UB-311). The experiment in a line: comp. ELISA, serum P104. For orientation: In an ELISA, binding on a coated surface is turned into a signal by an enzyme label.
Molecule B1 had an IC50-based peak height of 0.

The molecule B2 registered an IC50-based peak height of 0.

Take B3: the IC50-based peak height came out at 0.

In the case of B4, the IC50-based peak height was 0.

Another test shares this target. The experiment in a line: comp. ELISA, serum P105.
Regarding B1, the IC50-based peak height came to 0.

As for B2, the IC50-based peak height is 0.

The molecule B3 yielded an IC50-based peak height of 0.

Molecule B4 gave an IC50-based peak height of 0.

The target is the same in the next test. Briefly: comp. ELISA, serum P101.
As for B1, the IC50-based peak height came out at 0.

The molecule B2 registered an IC50-based peak height of 0.

Take B3: the IC50-based peak height came to 214.

With B4, the IC50-based peak height is 0.

A further test shares this target. The experiment in a line: comp. ELISA, serum P108.
Turning to B1, the IC50-based peak height is 0.

B2 displayed an IC50-based peak height of 0.

Turning to B3, the IC50-based peak height stood at 0.

With B4, the IC50-based peak height came to 0.

For another test the target is unchanged. The experiment in a line: comp. ELISA, serum P109.
With B1, the IC50-based peak height amounted to 0.

Consider B2, for which the IC50-based peak height came out at 0.

In the case of B3, the IC50-based peak height is 0.

Molecule B4 showed an IC50-based peak height of 0.

The next test shares this target. Briefly: comp. ELISA, serum P210.
On to B1, for which the IC50-based peak height was determined as 0.

In the case of B2, the IC50-based peak height was 0.

In turn, B3 came in with an IC50-based peak height of 0.

In the case of B4, the IC50-based peak height was found to be 0.

The next test has the same target. Briefly: comp. ELISA, serum P107.
B1: the IC50-based peak height worked out at 0.

Consider B2, for which the IC50-based peak height came out at 0.

B3 yielded an IC50-based peak height of 0.

The molecule B4 displayed an IC50-based peak height of 0.

The target is the same in a further test. Briefly: comp. ELISA, serum P106.
For B1, the IC50-based peak height came to 0.

B2 displayed an IC50-based peak height of 0.

B3: the IC50-based peak height worked out at 0.

The molecule B4 registered an IC50-based peak height of 0.

The next test shares this target. The experiment in a line: comp. ELISA, serum P207.
B1 displayed an IC50-based peak height of 0.

For the molecule B2, the IC50-based peak height was found to be 10.

As to B3, the IC50-based peak height came to 0.

In turn, B4 yielded an IC50-based peak height of 0.

Another test shares this target. The experiment in a line: comp. ELISA, serum P204.
B1: the IC50-based peak height amounted to 0.

B2 returned an IC50-based peak height of 0.

For B3, the IC50-based peak height was determined as 0.

Molecule B4 gave an IC50-based peak height of 0.

The next test shares this target. Briefly: comp. ELISA, serum P208.
In turn, B1 displayed an IC50-based peak height of 0.

B2 showed an IC50-based peak height of 0.

Take B3: the IC50-based peak height worked out at 0.

Turning to B4, the IC50-based peak height stood at 0.

The target is the same in another test. The experiment in a line: comp. ELISA, serum P205.
As for B1, the IC50-based peak height turned out to be 0.

Consider B2, for which the IC50-based peak height is 0.

B3: the IC50-based peak height turned out to be 0.

Take B4: the IC50-based peak height was found to be 0.

A further test has the same target. Briefly: comp. ELISA, serum P103.
Molecule B1 returned an IC50-based peak height of 0.

In the case of B2, the IC50-based peak height was 0.

Take B3: the IC50-based peak height worked out at 0.

Turning to B4, the IC50-based peak height was 0.

Another test has the same target. Briefly: comp. ELISA, serum P203.
The molecule B1 came in with an IC50-based peak height of 0.

B2 had an IC50-based peak height of 0.

The molecule B3 showed an IC50-based peak height of 0.

As for B4, the IC50-based peak height was 0.

A further test shares this target. Briefly: comp. ELISA, serum P102.
In turn, B1 returned an IC50-based peak height of 0.

In turn, B2 came in with an IC50-based peak height of 0.

For B3, the IC50-based peak height stood at 0.

B4 had an IC50-based peak height of 0.

Another test shares this target. The experiment in a line: comp. ELISA, serum P202.
B1 gave an IC50-based peak height of 0.

Consider B2, for which the IC50-based peak height is 0.

In turn, B3 returned an IC50-based peak height of 0.

In the case of B4, the IC50-based peak height turned out to be 0.

For a further test the target is unchanged. Briefly: comp. ELISA, serum P206.
B1 came in with an IC50-based peak height of 0.

B2 registered an IC50-based peak height of 0.

Consider B3, for which the IC50-based peak height came to 0.

For the molecule B4, the IC50-based peak height came to 0.

The target is the same in a further test. The experiment in a line: comp. ELISA, serum P201.
Molecule B1 yielded an IC50-based peak height of 0.

As to B2, the IC50-based peak height is 0.

Regarding B3, the IC50-based peak height came to 0.

B4: the IC50-based peak height turned out to be 0.

Another test shares this target. The experiment in a line: comp. ELISA, serum P209.
B1 displayed an IC50-based peak height of 0.

For the molecule B2, the IC50-based peak height amounted to 0.

Regarding B3, the IC50-based peak height stood at 0.

For B4, the IC50-based peak height was found to be 0.
